We go through four molecules from patent publication US20210101998A1 (Pfizer, published 2021).

Read-outs that look alike come from different tables or passages of the source.

For test [1], the target named is T1, cyno TFPI K2 (cynomolgus monkey, UniProt Q28864 116-177 (rhesus entry), limits assumed).
T1 construct: K2 fragment cut out of cynTFPI K1K2 with human neutrophil elastase, residual AviTag trimmed with AspN; also called Cynomolgus TFPI K2 domain; cyno K2
Briefly: not told.
Protocol: Based on buried surface area (BSA) and percent BSA (% BSA) for residues at the Fab TFPI K1K2 interface, the epitope and paratope of the complex were determined.

Test [2] concerns the target T2, cyno K1 (cynomolgus monkey, UniProt Q28864 29-115 (rhesus entry), limits assumed).
T2 construct: also called K1 domain alone
T2 chain: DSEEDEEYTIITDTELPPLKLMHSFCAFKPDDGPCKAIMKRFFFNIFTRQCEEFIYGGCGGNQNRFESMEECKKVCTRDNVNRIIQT
Kind of test: not told.

The target of test [3] is T3, humTFPI K1K2 (human).
T3 construct: Biotinylated on the AviTag for ELISA; also called Human TFPIα K1K2; humTFPI K1K2-aviHis10
Kind of test: SPR, summary table.
Protocol: (§1) The flow cells were activated by injecting a 1:1 mixture of 400 mM 1-Ethyl-3-(3-dimethylaminopropyl) carbodiimide hydrochloride (EDC) and N-hydroxysuccinimide (NHS) for 7 minutes at a flow rate of 10 μl/minute. Anti-human IgG antibody was diluted to 25 μg/ml in 10 mM Sodium Acetate pH 5.0 and injected over all flow cells for 7 minutes at 10 ul/minute. All flow cells were blocked with 1 M Ethanolamine-HCL (ETH) for 7 minutes at 10 μl/minute. Final immobilization level of the capture antibody was approximately 10,000 resonance units (RU). The running buffer for immobilization and kinetics was 10 mM HEPES pH 7.4, 150 mM NaCl, 3 mM EDTA, 0.05% (v/v) Tween-20 (HBS-EP+). […] Flow cell 1 was used as a reference surface. […] At the end of each cycle, the entire anti-IgG surface was regenerated by a 60 second pulse of 3 M MgCl2. Kinetic assays were conducted at 25° C. at a collection rate of 10 Hz on a BIAcore T200 instrument (GE Healthcare). Rate constants and affinities were determined by fitting the data to a 1:1 model in BIAcore T200 Evaluation software version 1.0 (GE).

Test [4] has as its target T4, murTFPI K1K2 (mouse).
T4 construct: also called Mouse TFPI K1K2; mouse TFPI
T4 chain: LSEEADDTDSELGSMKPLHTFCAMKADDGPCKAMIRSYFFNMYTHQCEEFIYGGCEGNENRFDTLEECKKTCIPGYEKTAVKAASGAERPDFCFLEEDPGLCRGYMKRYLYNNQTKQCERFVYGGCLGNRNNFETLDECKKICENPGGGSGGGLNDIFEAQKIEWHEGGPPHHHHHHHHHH
Briefly: SPR, summary table.
Protocol: as §1

Test [5] concerns the target T5, cynTFPI K1K2 (cynomolgus monkey).
T5 construct: also called Cynomolgus Monkey TFPI K1K2; cyno TFPI K1K2
Briefly: SPR, summary table.
Protocol: as §1

Test [6] addresses T6, rabTFPI K1K2 (rabbit, limits assumed).
T6 construct: also called Rabbit TFPI K1K2; rabbit TFPI
T6 chain: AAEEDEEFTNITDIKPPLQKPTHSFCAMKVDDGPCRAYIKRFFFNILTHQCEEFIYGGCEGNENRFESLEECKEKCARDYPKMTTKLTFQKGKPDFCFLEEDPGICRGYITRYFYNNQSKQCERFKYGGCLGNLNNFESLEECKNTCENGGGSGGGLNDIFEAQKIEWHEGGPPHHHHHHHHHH
Kind of test: SPR, summary table.
Protocol: as §1

Test [7] has as its target T3, humTFPI K1K2. Kind of test: cell-based or functional assay.
Test [8] deals with T3, humTFPI K1K2. Briefly: SPR, antibody ligand, TFPI analyte.
Protocol: as §1
Test [9] has as its target T4, murTFPI K1K2. Kind of test: SPR, antibody ligand, TFPI analyte.
Protocol: as §1
In test [10] the target is T5, cynTFPI K1K2. Briefly: SPR, antibody ligand, TFPI analyte.
Protocol: as §1
Test [11] concerns the target T6, rabTFPI K1K2. Briefly: SPR, antibody ligand, TFPI analyte.
Protocol: as §1
Test [12] has as its target T3, humTFPI K1K2. Briefly: cell-based or functional assay. The source holds these as a separate data set.
The target of test [13] is T3, humTFPI K1K2. Briefly: SPR, antibody ligand, TFPI analyte. This is another data set of the same source.
Test [14] deals with T4, murTFPI K1K2. Kind of test: SPR, antibody ligand, TFPI analyte.
In test [15] the target is T3, humTFPI K1K2. Briefly: SPR, antibody ligand, TFPI analyte. This is another data set of the same source.
Protocol: as §1
Test [16] addresses humTFPI K1K2K3 (human). Briefly: cell-based or functional assay.
Test [17] has as its target T7, ratTFPI K1K2 (rat).
T7 chain: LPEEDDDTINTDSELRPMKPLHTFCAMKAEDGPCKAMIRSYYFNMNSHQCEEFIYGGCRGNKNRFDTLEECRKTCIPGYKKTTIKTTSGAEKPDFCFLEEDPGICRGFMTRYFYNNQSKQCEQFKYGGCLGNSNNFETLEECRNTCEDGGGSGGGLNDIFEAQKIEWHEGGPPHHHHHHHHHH
Briefly: SPR, summary table.
Protocol: as §1

In test [18] the target is T7, ratTFPI K1K2. Kind of test: SPR, antibody ligand, TFPI analyte.
Protocol: as §1
Test [19] addresses T3, humTFPI K1K2. Kind of test: SPR, antibody ligand, TFPI analyte. The source holds these as a separate data set.
Protocol: as §1
For test [20], the target named is T6, rabTFPI K1K2. Briefly: SPR, antibody ligand, TFPI analyte.
Protocol: as §1
Test [21] deals with T3, humTFPI K1K2. Kind of test: ELISA, biotinylated TFPI on streptavidin plate.
The target of test [22] is T6, rabTFPI K1K2. Briefly: ELISA, biotinylated TFPI on streptavidin plate.

B1: 2A8-200 (antibody, human IgG1, lambda, V domains shown)
VH: QVQLVESGGGLVQPGGSLRLSCAASGFTFRSYGMDWVRQAPGKGLEWVSSIRGSRSSTYYADSVKGRFTISRDNSKNTLYLQMNSLRAEDTAVYYCARLYRYWFDYWGQGTLVTVSS
VL: DIELTQPPSVSVAPGQTARISCSGDNLRNYYAHWYQQKPGQAPVVVIFYDVNRPSGIPERFSGSNSGNTATLTISGTQAEDEADYYCQSWWDGVPVFGGGTKLTVLG
notes: also called Anti-TFPI-2A8-200
Take B1: the binding result in [1] and in test [2] was “no binding” each time. In addition, the Kd in test [3] was found to be 0.327 nM; in [4], 0.455 nM; in [5], 0.637 nM; in test [6] it was 0.145 nM; in test [8], 0.327 nM; in test [9] it was 0.455 nM. Besides, the Kd in test [10] worked out at 0.637 nM; in [11] it was 0.145 nM. Further, the “FVIIa/TF/Xa EC50” value in test [7] was found to be 4.84 nM. Moreover, the “Xa Inhibition Assay EC50” value in test [7] turned out to be 2.42 nM. Also, the off-rate (koff) in [8] is 0.000381 s⁻¹; in [9], 0.00117 s⁻¹; in test [10] it was 0.000809 s⁻¹; in [11], 0.000277 s⁻¹. For the same molecule, the kon in test [8] was 1.16e+06 M⁻¹ s⁻¹; in [9], 2.54e+06 M⁻¹ s⁻¹; in test [10] it was 1.25e+06 M⁻¹ s⁻¹; in test [11], 1.92e+06 M⁻¹ s⁻¹.

B2: TFPI-23 (antibody, human IgG1, lambda)
light: QSVLTQPPSVSGAPGQRVTISCTGSSSNIGAGYDVHWYQQLPGTAPKLLIYGNSNRPSGVPDRFSGSKSGTSASLAITGLQAEDEADYYCQSYDSSLSGSGVFGGGTKLTVLGQPKAAPSVTLFPPSSEELQANKATLVCLISDFYPGAVTVAWKADSSPVKAGVETTTPSKQSNNKYAASSYLSLTPEQWKSHRSYSCQVTHEGSTVEKTVAPTECS
heavy: not shown
notes: Human IgG1-3M from phage display; also called mAb-TFPI-23; clone 23
Regarding B2, the “FXa EC50” value in test [12] was found to be 46 nM. For the same molecule, the “FXa-FVIIa EC50” value in test [12] is 32.2 nM. Further, the Kd in [13] turned out to be 9.89 nM; in test [14] it was 1.46 nM; in test [15] it was 9.89 nM.

B3: TFPI-106 (antibody, human IgG1, lambda)
light: QSVLTQPPSVSGAPGQRVTISCTGSSSNIGAGYDVHWYQQLPGTAPKLLIYGNSNRPSGVPDRFSGSKSGTSASLAITGLQAEDEADYYCQSYDSSLSGSGVFGGGTKLTVLGQPKAAPSVTLFPPSSEELQANKATLVCLISDFYPGAVTVAWKADSSPVKAGVETTTPSKQSNNKYAASSYLSLTPEQWKSHRSYSCQVTHEGSTVEKTVAPTECS
heavy: not shown
For B3, in test [16], the “EC50, neutralization of FVIIa/TF/FXa inhibition” value came out at 8.47 nM. Also, the Kd in test [6] amounted to 4.25 nM; in test [17], 1.57 nM; in [11], 4.25 nM; in [18], 1.57 nM. In addition, in test [7], the “FVIIa/TF/Xa EC50” value is 4.3 nM. The “Xa Inhibition Assay EC50” value in [7] was determined as 18.1 nM.

B4: mu-hu 4D8 chimera (antibody, human IgG1, kappa)
light: DIVMTQSHKFMSTSVGDRVSITCKASQDVHTAVAWYQQKPGQSPRLLIYWASTRHTGVPDRFTGCGSGTDYTLTISSVQAEDLALYYCQQHYTTPYTFGGGTKLEMKRTVAAPSVFIFPPSDEQLKSGTASVVCLLNNFYPREAKVQWKVDNALQSGNSQESVTEQDSKDSTYSLSSTLTLSKADYEKHKVYACEVTHQGLSSPVTKSFNRGEC
heavy: EVLLQQSGPELVKPGASVKIPCKASGYTFTDYNLDWVKQSHGKSLEWIGDINPINGATLYNQKFKGKATLTVDQSSSTAYMELRSLTSEDTAVYYCSIYYGDYDAMDYWGQGASVTVSSASTKGPSVFPLAPSSKSTSGGTAALGCLVKDYFPEPVTVSWNSGALTSGVHTFPAVLQSSGLYSLSSVVTVPSSSLGTQTYICNVNHKPSNTKVDKKVEPKSCDKTHTCPPCPAPEAAGAPSVFLFPPKPKDTLMISRTPEVTCVVVDVSHEDPEVKFNWYVDGVEVHNAKTKPREEQYNSTYRVVSVLTVLHQDWLNGKEYKCKVSNKALPAPIEKTISKAKGQPREPQVYTLPPSREEMTKNQVSLTCLVKGFYPSDIAVEWESNGQPENNYKTTPPVLDSDGSFFLYSKLTVDKSRWQQGNVFSCSVMHEALHNHYTQKSLSLSPG
notes: Mouse variable regions on human IgG1 3M and human kappa; also called hu-mu 4D8 chimera; mouse-human chimeric antibody 4D8
B4: in test [19], binding was characterised by a dissociation constant (Kd) of 1.19 nM, the off-rate constant (koff) came out at 0.00114 s⁻¹ and the kon stood at 958000 M⁻¹ s⁻¹. Moreover, in [20], the Kd came out at 0.63 nM, the dissociation rate constant (koff) was 0.00126 s⁻¹ and the on-rate constant (kon) was 2.01e+06 M⁻¹ s⁻¹. In test [21], the concentration giving a half-maximal response (EC50) worked out at 0.0577 nM. This molecule showed a concentration for a half-maximal effect (EC50) in test [22] of 0.068 nM.
